From patent publication US20260250737A1, “Engineered Luciferases and Luciferin Substrates” (Monod Bio, Inc., priority 2023, published 2026) come the findings set out here.

Substitutions are numbered along the chain they refer to.

In the experiment the test system is SmLux. The experiment is described as follows: Computationally generated LgLux variants expressed in E. coli, tested in lysates with SmLux and substrate 1c. Type of experiment: biochemical. Particulars: 50 uM substrate 1c; for Fold change upon SmLux peptide addition: 20 uM SmLux; for Baseline Signal (Normalized by expression): before SmLux peptide addition. The procedure:
LgLux sequences were designed computationally, and their activity measured as depicted schematically in FIG. 45.
A library of the computationally generated LgLux variants were expressed in E. coli and tested in lysates. 20 uM of SmLux and 50 uM of substrate 1c was used for the screening.
LgLux_4039 sequence is as set forth in SEQ ID NO:2773. MBIO-5103 through MBIO-5124, MBIO-5261 through MBIO-5295, MBIO-5101, and MBIO-5102 (SEQ ID NO:2815-SEQ ID NO:2873, respectively) are computationally generated LgLux. The sequences and activity of these LgLux are shown below in Table 21.
MBIO-5358 and MBIO-5360 through MBIO-5381 (SEQ ID NO:2774-SEQ ID NO:2796, respectively) are computationally generated LgLux.

B1: 5278 (protein)
chain: MTPEAIRENVEAFYAALASGDWEAAKALFDPGVTITLWDGTTFTSVEEFRAWFEEQFQTSKDALREIVSMRIEGDTVRVLVRLTFTRDGETQVVDLLQLFKFV
On to B1, for which the “Fold change upon SmLux peptide addition” value was found to be 1.61 and the “Baseline Signal (Normalized by expression)” value came out at 121.2.

B2: 5264 (protein)
chain: MTPEEIRANVEAFYAALASGDWEAARALFDPGVTITLWDGTTFTSVEEFRAWFEEQFKTSKDALREIVDLEVEGDVVRVLVRLTFVRDGKEEVVDLLQLFKFV
Regarding B2, the “Fold change upon SmLux peptide addition” value is recorded as 1.26 and the “Baseline Signal (Normalized by expression)” value was 127.6.

B3: 5273 (protein)
chain: B2 chain with E5A, A8E, E11R, R26K, E55K, D69S
Take B3: the “Fold change upon SmLux peptide addition” value is given as 1.01 and the “Baseline Signal (Normalized by expression)” value is 140.4.

B4: 5269 (protein)
chain: B2 chain with A8E, E11R, W22L, E23A, R26K, E55K, D69S, V76T
As to B4, the “Fold change upon SmLux peptide addition” value was found to be 1.1 and the “Baseline Signal (Normalized by expression)” value amounted to 137.2.

B5: 5270 (protein)
chain: B2 chain with E5A, R7I, E11K, E23A, E55A, K58E, D69S, L70M, V76T, D88N
For B5, the “Fold change upon SmLux peptide addition” value is listed as 1.25 and the “Baseline Signal (Normalized by expression)” value was found to be 135.2.

B6: 5285 (protein)
chain: B2 chain with A12R, E23A, A24T, R26E, E47A, D69S, V72I, E73N, V86T
Regarding B6, the “Fold change upon SmLux peptide addition” value was found to be 1.26 and the “Baseline Signal (Normalized by expression)” value amounted to 188.

B7: 5281 (protein)
chain: B2 chain with W22L, R26K, A27S, A51K, D69S, L70M, V72I, V76T, E91V, V93E
Take B7: the “Fold change upon SmLux peptide addition” value turned out to be 3.02 and the “Baseline Signal (Normalized by expression)” value is 125.6.

B8: 5261 (protein)
chain: MTPEEIRANVRAFYAALASGDLAAARALFDPGVTITLWDGTTFTSVEEFRAWFEEQFQTSKDALREIESIEVEGDTVRVLVRLTFTRDGVTQEVDLLQLFKFV
Consider B8, for which the “Fold change upon SmLux peptide addition” value was 2.16 and the “Baseline Signal (Normalized by expression)” value worked out at 176.8.

B9: 5262 (protein)
chain: B8 chain with I6R, R7I, A8E, L22W, E55K, Q58K, V90K, T91E, Q92E
Consider B9, for which the “Fold change upon SmLux peptide addition” value is listed as 2.29 and the “Baseline Signal (Normalized by expression)” value worked out at 139.6.

B10: 5279 (protein)
chain: B1 chain with A5E, E11R, W22L, E23A, M70L, R71E, T76V, D88N
Take B10: the “Fold change upon SmLux peptide addition” value was found to be 1.12 and the “Baseline Signal (Normalized by expression)” value was 111.8.

B11: 5280 (protein)
chain: B2 chain with E11R, E55K, K58Q, D69A, K90V, E92Q, V93E
As for B11, the “Fold change upon SmLux peptide addition” value was found to be 1.07 and the “Baseline Signal (Normalized by expression)” value stood at 129.2.

B12: 5276 (protein)
chain: B2 chain with P3D, E11R, W22L, R26K, E55K, V68E, D69S, V76T, E92Q
As for B12, the “Fold change upon SmLux peptide addition” value worked out at 6.45 and the “Baseline Signal (Normalized by expression)” value is reported as 125.6.

B13: 5271 (protein)
chain: B1 chain with A5E, E11R, A12N, W22L, Q58K, R71E, E90V, T91E
For the molecule B13, the “Fold change upon SmLux peptide addition” value was 10.11 and the “Baseline Signal (Normalized by expression)” value amounted to 145.

B14: 5282 (protein)
chain: B2 chain with R7I, E11R, W22L, R26K, E55Q, K58Q, D69S, L70I, K90E, E92Q
For B14, the “Fold change upon SmLux peptide addition” value turned out to be 1.18 and the “Baseline Signal (Normalized by expression)” value came to 131.8.

B15: 5266 (protein)
chain: B8 chain with R26K, E68V, I70L, E71R, V90K, T91V
As for B15, the “Fold change upon SmLux peptide addition” value is on record as 1.09 and the “Baseline Signal (Normalized by expression)” value worked out at 129.8.

B16: 5284 (protein)
chain: B8 chain with I6R, R7F, A15E, A23E, R26K, E68V, S69D, I70M, D88N, V90E
B16: the “Fold change upon SmLux peptide addition” value stood at 5.16 and the “Baseline Signal (Normalized by expression)” value is listed as 186.8.

B17: 5274 (protein)
chain: B2 chain with E11R, E23A, R26E, E47A, E55A, K58Q, D69S, K90R, E91T, V93E
Consider B17, for which the “Fold change upon SmLux peptide addition” value stood at 1.07 and the “Baseline Signal (Normalized by expression)” value was determined as 125.2.

B18: 5267 (protein)
chain: B8 chain with R7L, R26K, Q58K, E68V, I70A, V90K, T91V, Q92E
In the case of B18, the “Fold change upon SmLux peptide addition” value is 1.42 and the “Baseline Signal (Normalized by expression)” value turned out to be 130.6.

B19: 5283 (protein)
chain: MTPEEIRANVERFYAALASGDLETAKALFDPGVTITLWDGTTFTSVEEFRKWFEEQFETSKDALREIVSMEVEGDTVRVLVRLTFVRNGEEKVVDLLQLFKFV
For the molecule B19, the “Fold change upon SmLux peptide addition” value came out at 1.14 and the “Baseline Signal (Normalized by expression)” value was found to be 141.4.

B20: 5286 (protein)
chain: MTPEERIANVRAFYAALASGDLEAAKALFDPGVTITLWDGTTFTSVEEFRAWFEEQFKTSKDALREIESIEVDGDTVRVLVRLTFVRDGEEKVVDLLQLFKFV
Take B20: the “Fold change upon SmLux peptide addition” value amounted to 33.33 and the “Baseline Signal (Normalized by expression)” value worked out at 196.

B21: 5263 (protein)
chain: MTPEEIRANVLAFYAALASGDLAAAEALFDPGVTITLWDGTTFTSVAEFRAWFEAQFQTSKDALREIVDMRVEGDVVRVLVRLTFVRDGEEQVVDLLQLFKFV
As to B21, the “Fold change upon SmLux peptide addition” value is on record as 1.38 and the “Baseline Signal (Normalized by expression)” value is recorded as 137.4.

B22: 5265 (protein)
chain: B21 chain with E5Q, L11R, L22W, A55E, Q58K, D69S, R71E, V76T, Q92K
Turning to B22, the “Fold change upon SmLux peptide addition” value came to 2.8 and the “Baseline Signal (Normalized by expression)” value is reported as 126.4.

B23: 5277 (protein)
chain: B2 chain with E11R, W22L, R26K, A51K, D69E, L70M, E71R, V72I, E92Q
In the case of B23, the “Fold change upon SmLux peptide addition” value amounted to 1.19 and the “Baseline Signal (Normalized by expression)” value turned out to be 120.6.

B24: 5272 (protein)
chain: B21 chain with I6R, R7I, L11R, L22W, A55Q, V68L, M70I, R71E, E90K
In the case of B24, the “Fold change upon SmLux peptide addition” value was 11.86 and the “Baseline Signal (Normalized by expression)” value was 141.4.

B25: 5268 (protein)
chain: MTPEEIRENVRRFYAALASGDLEAAKSLFDPGVTITLWDGTTFTSVEEFRAWFEEQFQTSKDALREIVSLEVEGDVVRVLVRLTFVRDGEVQEVDLLQLFKFV
As for B25, the “Fold change upon SmLux peptide addition” value was 1.05 and the “Baseline Signal (Normalized by expression)” value is 133.

B26: 5275 (protein)
chain: B25 chain with R7K, R11L, R12N, S27A, E55K, Q58K, L70M, V86T, E90K, Q92E
For the molecule B26, the “Fold change upon SmLux peptide addition” value was determined as 1.35 and the “Baseline Signal (Normalized by expression)” value worked out at 122.8.

B27: 5103 (protein)
chain: MTPEQRIANVRAFYAALASGDLEAAKALFDPGVTITLWDGTTFTSLEEFLAWFEKQFDASKDAKREIVDIEVEGDVVRVLVRLTYTKDGKEKVVDLLQLLKFV
Regarding B27, the “Fold change upon SmLux peptide addition” value is listed as 0.94 and the “Baseline Signal (Normalized by expression)” value is given as 193.2.

B28: 5104 (protein)
chain: B27 chain with Q5E, R6I, I7R, E23A, V33T, D58K, D69S, I70L, V76T, K87V
For the molecule B28, the “Fold change upon SmLux peptide addition” value came out at 0.97 and the “Baseline Signal (Normalized by expression)” value came to 180.8.
